A protein production outcome set (Wang et al. 2014)

Test: label from the status in PepcDB records

Row | Sequence | protein production
1 | MKYSLCTISFRHQLISFTDIVQFAYENGFEGIELWGTHAQNLYMQEYETTERELNCLKDKTLEITMISDYLDISLSADFEKTIEKCEQLAILANWFKTNKIRTFAGQKGSADFSQQERQEYVNRIRMICELFAQHNMYVLLETHPNTLTDTLPSTLELLGEVDHPNLKINLDFLHIWESGADPVDSFQQLRPWIQHYHFKNISSADYLHVFEPNNVYAAAGNRTGMVPLFEGIVNYDEIIQEVRDTDHFASLEWFGHNAKDILKAEMKVLTNRNLEVVTS | not failed
2 | MLRVIVESASNIPKTKFGKPDPIVSVIFKDEKKKTKKVDNELNPVWNEILEFDLRGIPLDFSSSLGIIVKDFETIGQNKLIGTATVALKDLTGDQSRSLPYKLISLLNEKGQDTGATIDLVIGYDPP | not failed
3 | MIGGSIISSNLLIRIFHGSCRKIIAFLFTILSLTLISGVLIYFVEGETGGFISRSSSVYWAITTLLTTGYGDTVLQTNFGRLVASVVKVLGFSIIVAPIVIIITEIYKSLSETSRKTKSLTISPFPLIWRYLNTQYFRML | failed
4 | MKIFIVGSTGRVGKSLLKSLSTTDYQIYAGARKVEQVPQYNNVKAVHFDVDWTPEEMAKQLHGIDAIINVSGSGGKSLLKVDLYGAVKLMQAAEKAEVKRFILLSTIFSLQPEKWIGAGFDALKDYYIAKHFADLYLTKETNLDYTIIQPGALTEEEATGLIDINDEVSASNTIGDVADTIKELVMTDHSIGKVISMHNGKTAIKEALESLLEHHHHHH | not failed
5 | LAKILGMDSDGLNRLECFDISHTQGEATIASCVVYDEQNIQPSQYRRYNITTAKPGDDYAAMREVLTRRYGKMQEAEANGETVKWPDAVLIDGGKGQIGVAVSVWEELGLHIPLVGIAKGPERKAGMEELILPFTGEVFRLPPNSPALHLLQTVRDESHRFAI | failed
6 | MDTLEPTAVDTHVSAEQILRDVYKKGQKARGSTNIDILDLEELREYQRRKRTEYEGYLKRNRLDMGQWIRYAQFEIEQHDMRRARSIFERALLVDSSFIPLWIRYIDAELKVKCINHARNLMNRAISTLPRVDKLWYKYLIVEESLNNVEIVRSLYTKWCSLEPGVNAWNSFVDFEIRQKNWNGVREIYSKYVMAHPQMQTWLKWVRFENRHGNTEFTRSVYSLAIDTVANLQNLQIWSDMEVAKLVNSFAHWEAAQQEYERSSALYQIAIEKWPSNQLLKAGLLDFEKQFGDINSIEETISYKRKMEYETILSNNAYDYDTWWLYLDLISESFPKQIMQTFEKAIVDSRPKELSKNVQWKRYIYLWMRYICYVELELENSLLEEELFQRLIDDIIPHKHFTFSKIWLMYAKFLIRHDDVPKARKILGKAIGLCPKAKTFKGYIELEVKLKEFDRVRKIYEKFIEFQPSDLQIWSQYGELEENLGDWDRVRGIYTIALDENSDFLTKEAKIVLLQKYITFETESQEFEKARKLYRRYLELNQYSPQSWIEFAMYQTSTPTEQQLLDLAKLQSENVDEDIEFEITDENKLEARKVFEEAIVFFKEKDDKQGRLSILEALKDYEETYGTELDQETVKKRFPKVIKKVRLQNGVEEEFVDYIFPDDIDDDKPKPSKFLELAKKWKQEQAL | failed
7 | MQEAEAIYQSGMKILNGSTRKNQKREAYRYLQKAAGMNHTKALERVSYALLFGDYLTQNIQAAKEMFEKLTEEGSPKGQTGLGFLYASGLGVNSSQAKALVYYTFGALGGNLIAHMVLGYRYWAGIGVLQSCESALTHYRLVANHVASDISLTGGSVVQRIRLPDEVENPGMNSGMLEEDLIQYYQFLAEKGDVQAQVGLGQLHLHGGRGVEQNHQRAFDYFNLAANAGNSHAMAFLGKMYSEGSDIVPQSNETALHYFKKAADMGNPVGQSGLGMAYLYGRGVQVNYDLALKYFQKAAEQGWVDGQLQLGSMYYNGIGVKRDYKQALKYFNLASQGGHILAFYNLAQMHASGTGVMRSCHTAVELFKNVCERGRWSERLMTAYNSYKDDDYNAAVVQYLLLAEQGYEVAQSNAAFILDQREATIVGENETYPRALLHWNRAASQGYTVARIKLGDYHFYGFGTDVDYETAFIHYRLASEQQHSAQAMFNLGYMHEKGLGIKQDIHLAKRFYDMAAEASPDAQVPVFLALCKLGVVYFLQYIREANIRDLFTQLDMDQLLGPEWDLYLMTIIALLLGTVIAYRQRQHQDIPVPRPPGPRPAPPQQEGPPEQQPPQ | failed
8 | MLYHKLGYVQSAQQTLREVMTIWQAWFKALKAYRKNPARFTGRPRMPRYLHKSQRHTFYVTNQNAQIVRKDEQDKGYLVIKKLGIKIKLASADIKKIGRVAFKPVANGYKVIVPYKTKQKIKYLPDNGKYLGIDPGIDNAFACVSNTGARPLLINGRGIKSVNQYYNKKRSELKRLQAKYHQLEKLISTKQGLKPVYQETKAMKRITAWRNDKIRQFAHKASKRIVDYALSCDANTIVIGKNKSWKRSFEMGKRNNQNFIGIPHQVMIDMIKYKANLAGITVIQTNESYTSQISALDHEQPCWNNGNKSRKKQRKSPVNRRIKRGLFKADNGTLINADINGALQIIKKVFPNFSLDDGIVGAVLRPFKWSPTI | failed
9 | MTIQLTVPTIACEACAEAVTKAVQNEDAQATVQVDLTSKKVTITSALGEEQLRTAIASAGHEVE | not failed
10 | MGVNETGYVLIYGGSSWVSQPQALETIYPAENWQEIIQDFRQKQPDLPVVVIQGPDDEQFVRSLRDYSLDIKVTSPDNVGKLTAMIAGANLMLTTDSAPLHLSVAVQTYTIALFGSTDPVKLLPNSDKLLGIKSSTGRVADILPKAVLEKVWGGLEHHHHHH | failed
11 | MLLSYVYKLNPSLKQAETMERWLHLLRLQYNFRVRERTEAYEQAKAPVMGNYCILQTQAECCPLTCSVSKGALYGNPWSTKGKKRSPLAQQDANLVDLKKERPWYGEICYHVLQQMLKQVDTAFVRFFKGLGKYPKTKRRGKLRSFTYPTGDVGFKGNKVRLPGLGWMRFFQSRPFPLGFKIRSTTVRKKANGFYISVLLQDDTVPQASASQQIQTALGVDLGIKKLISLSTGETIANPRFYKQMERKRSRLNWAANRKVLGSRRRQKAYQQIAQLEQKVTNQREDYQWKIAHNLVKRFDLIVFENLNVQGMMARCKPKQDESGKYLRNGQSAKSGLNKAIADAAWGSLKLKVKILSERAGVLVHEVKPNFSSQECSECGYISPTNRDKEKFLCEHCGHHADADIDAAKVILKRGLSELGINLDAVSGVPRKQDKSTSKEPVARQGISTALAVEPGNPHQVEERLSN | failed
12 | MDIQNMPREQLGVCAEGNLHSVYLMFNANDNVESQLRPCIANVAQYIYELTDQYSDSAFNGFVAIGANYWDSLYPESRPEMLKPFPAMQEGNREAPAIEYDLFVHLRCDRYDILHLVANEISQMFEDLVELVEEERGFRFMDSRDLTGFVDGTENPKGRHRQEVALVGSEDPEFKGGSYIHVQKYAHNLSKWHRLPLKKQEDIIGRTKQDNIEYESEDKPLTSHIKRVNLKDENGKSIEILRQSMPYGSLKEQGLMFISTCRTPDHFEKMLHSMVFGDGAGNHDHLMHFTSALTGSSFFAPSLDFLMQFDN | not failed
13 | MPLFKFAIDVQYRSNVRDPRGETIERVLREEKGLPVKKLRLGKSIHLEVEAENKEKAYEIVKKACEELLVNPVVEEYEVREL | not failed
14 | MSKAIVLDSHLKEKGSVELPKRYESINSHNLYLYVKHYLSSARANTAKSKNRAEVSGGGRKPWAQKGGGRARAGSITSPVFVGGGVSHGATNNRNYNLKINKKQKRLALEYALEEKAQANKLFVVEKIAIKGVVEDNKRKHLTKEANQMFQALEQRDTLFVCMNMDEYTELAFSNLKKCLIVDVSELNAYLLAAFSSVVMEEAAFQHVVQDKTEE | failed
15 | MSKFAMVFPGQGSQSLGMLADLAAQFPIVEATFSEASSVLGYDLWQLVQQGPAEELNKTWQTQPALLTASVAIWRIWQHQGGKLPSLMAGHSLGEYSALVCAGVLDFKQAVSLVELRGKLMQEAVPEGTGAMYAIIGLDNESIAKACEESAQGQVVSPVNFNSPGQVVIAGNKDAVERAGAACKAAGAKRALPLPVSVPSHCALMKPAADKLAVALEKIDFQEPLFPVVNNVDVKAEVSPVAIRSALVRQLYNPVRWTESVEFIAAEGVELLLEIGPGKVLTGLTKRIVDSLAAAAVNDVVTLNSALEH | failed
16 | QKRAWITAPVALREGEDLSKKNPIAKIHSDLAEERGLKITYKYTGKGITEPPFGIFVFNKDTGELNVTSILDREETPFFLLTGYALDARGNNVEKPLELRIKVLDINDNEPVFTQD | not failed
17 | MTTPIALRDWRLLAAGCGGLLLLAAAITLHSHWGDFLQWCLATQITLHRYLVMYLLLLNNHQYSGGIWLLVGAFLYGVLHAVGPGHGKFIVTTYLSTNQESLTAARVVPFLGSLLQGVTAILFVFILAVGLNLAAGDLSASRWYVEKISALTIGVFGAYVIFRALQSLWPTKQVIRRLTPAHQHDASCGCGHHGVGQDMQGADWKTRLGVVLAIGVRPCSGAIMILLFANALGIVSWGIAAVMSMALGTALSILGLSLLVHYARHRTVKRLVTNHRPRPWLVPLVKILGGLALILFAVGLFFSVVPISANGDFIAAGC | failed
18 | MKKTGWGILGAVAAFTGYAYWSTKHLTVTDYEILSDKIPAEWDGATFVQLSDLHSASFGLYNNPLLSIVNELAPDAVFLTGDMIDGDESPFVTMAVVRKLAKEFPVFYVSGNHEGRSAFYEDFKADMEKHHVAVLENERYFLRKDGAAIMVAGVKDPRFVRDDWAEKELPKQVWEEEALKEALDEATANLSPDYFTILLAHRPEFWPLYQAYPVDLVLSGHAHGGQFRLPLTEGLFAPGQGFMPKWTAGLHSAGGKSLIVSRGLGNVTKLPRLFNDPEIIRITLKAKGDARENLEHHHHHH | failed
19 | MTRSANPSLFLPLRAAWLALMRFQAKSGFVMSSHVAMSMMMALFPFILFTVALAGSLSQDLVTDDLIQLIFGTWPEQVATPIVAELKAVLAGANSRVMTVGGVLAVYFASNGVDAVREAMSRAYHDAETRPFWKTRLLCIAIVVGGGAIVLAVAAFEVVMPIYTRLVTDALPGAAPDWLSVERLSWIFVVAMPAGAVLACHALLPAGRHPLRRILPGVVLTLVLWAGCGWGFSLYIANFASYSTTYAGLAGAMAALIFLYLNAAILILGAEFNGALMDLSGGPD | not failed
20 | MPKTLIILAHPNISQSTVHKHWSDAVRQHTDRFTVHELYAVYPQGKIDVAAEQKLIETHDSLVWQFPIYWFNCPPLLKQWLDEVLTYGWAYGSKGKALKGRKIALAVSLGAPAADYRADGAVGCSVAEVLRPFELTAKYCNADYRPPFTFHTIDSNAGYSEAARQEVERSARDYLAWLDALQQTLEHHHHHH | not failed
21 | MKSGERSAVADRAQQIMSAARELLDAEGPDALSMRRIAERVGIRAPSLYKHFADKAALVAGLQAQGLTLLAEVQEAAEAEIGADPPLLVLGYAYRRHALASPHLYRITHGWPLARTALPEGLEDRAALPLARAVHGDINIARSFWAFAHGMVVLELDGRFPPGADLDVAWRTGCEAFTQAIRNRPHGSTA | not failed
